In US20230137139A1, “BIOSYNTHESIS OF CANNABINOIDS AND C[…]” (priority 2020, published 2023):

Columns and labels:
[1] = test system: CBCVA, THCVA, and CBDVA production; experiment: In vivo TS activity assay, Example 2 protein engineering of A. niger CBCAS, cultures fed divaric acid; assay type: cell-based, S. cerevisiae; conditions: for Mean CBCVA / Mean CBDVA / Mean THCVA: S. cerevisiae strains expressing A. niger CBCAS mutants; for Mean CBCVA / Mean CBDVA / Mean THCVA / average CBCVA titer compared with the A. niger positive control: secondary screen; for Mean CBCVA / Mean CBDVA / Mean THCVA / % CBCVA / % CBDVA / % THCVA: fed divaric acid; for % CBCVA / % CBDVA / % THCVA: share of terminal cannabinoid product profile
How it was run: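 S. cerevisiae expressing A. niger CBCAS point mutants (N-terminal MFalpha2, C-terminal HDEL signal peptides) grown 2 days at 30 °C in YEP+4% dextrose, then 4 days at 20 °C in YEP+4% galactose with 1 mM divaric acid plus daily 2% galactose and 1 mM divaric acid spikes, then 2 days with 100 mM sodium citrate pH 5.5. Methanol extracts analysed by LC-MS; quadruplicate.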

[2] = test system: CBCA, THCA, and CBDA production; experiment: In vivo TS activity assay, Example 2 protein engineering of A. niger CBCAS, cultures fed olivetolic acid; assay type: cell-based, S. cerevisiae; conditions: for Mean CBCA / Mean CBDA / Mean THCA: secondary screen, olivetolic acid (Table 8); for % CBCA / % CBDA / % THCA: share of terminal cannabinoid product profile
How it was run: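 S. cerevisiae expressing A. niger CBCAS mutants (MFalpha2/HDEL-tagged) grown 2 days at 30 °C in YEP+4% dextrose, then 4 days at 20 °C in YEP+4% galactose with 1 mM olivetolic acid, spiked every 24 h with 2% galactose and 1 mM olivetolic acid. 100 mM citrate pH 5.5 added, methanol-extracted; CBCA, THCA, CBDA quantified by LC-MS.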

Molecule	Mean CBCVA [1] [µg/L]	Mean CBDVA [1] [µg/L]	Mean THCVA [1] [µg/L]	average CBCVA titer compared with the A. niger positive control [1]	% CBCVA [1] [%]	% CBDVA [1] [%]	% THCVA [1] [%]	Mean CBCA [2] [µg/L]	Mean CBDA [2] [µg/L]	Mean THCA [2] [µg/L]	% CBCA [2] [%]	% CBDA [2] [%]	% THCA [2] [%]
t865755 (protein, expressed in S. cerevisiae strain) MGNTTSIAGRDCLISALGGNSALAVFPNELLWTADVHEYNLNLPVTPAAITYPETAAQIAGVVKCASDYDYKVQARSGGHSFGNYGLGGADGAVVVDMKHFTQFSMDDETYEAVIGPGTTLNDVDIELYNNGKRAMAHGVCPTIKTGGHFTIGGLGPTARQWGLALDHVEEVEVVLANSSIVRASNTQNQDVFFAVKGAAANFGIVTEFKVRTEPAPGLAVQYSYTFNLGSTAEKAQFVKDWQSFISAKNLTRQFYNNMVIFDGDIILEGLFFGSKEQYDALGLEDHFAPKNPGNILVLTDWLGMVGHALEDTILKLVGNTPTWFYAKSLGFRQDTLIPSAGIDEFFEYIANHTAGTPAWFVTLSLEGGAINDVAEDATAYAHRDVLFWVQHFMVNPVGPISDTTYEFTDGLYDVLARAVPESVGHAYLGCPDPRMEDAQQKYWRTNLPRLQELKEELDPKNTFHHPQGVMPA	3729.91	0.00	1768.56	higher	67.84	0.00	32.16	19432.21	4507.57	1001.22	77.91	18.07	4.01
t865718 (protein) MGNTTSIAGRDCLISALGGNSALAVFPNELLWTADVHEYNLNLPVTPAAITYPETAAQIAGVVKCASDYDYKVQARSGGHSFGNYGLGGADGAVVVDMKHFTQFSMDDETYEAVIGPGTTLNDVDIELYNNGKRAMAHGVCPTIKTGGHFTIGGLGPTARQWGLALDHVEEVEVVLANSSIVRASNTQNQDVFFAVKGAAANFGIVTEFKVRTEPAPGLAVQYSYTFNLGSTAEKAQFVKDWQSFISAKNLTRQFYNNMVIFDGDIILEGLFFGSKEQYDALGLEDHFAPKNPGNILVLTDWLGMVGHALEDTILKLVGNTPTWFYAKSLGFRQDTLIPSAGIDEFFEYIANHTAGTPAWFVTLSLEGGAINDVAEDATAYAHRDVLFWVQLFMVNPVGPISDTTYEFTDGLYDVLARAVPESVGHAYLGCPDPRMEDAQQKYWRTNLPRLQELKEELDPKNTFHHPQGVMRA	5888.44	0.00	2516.89	higher	70.06	0.00	29.94	28669.67	7340.65	1640.20	76.15	19.50	4.36
t865747 (protein, expressed in S. cerevisiae strain) MGNTTSIAGRDCLISALGGNSALAVFPNELLWTADVHEYNLNLPVTPAAITYPETAAQIAGVVKCASDYDYKVQARSGGHSFGNYGLGGADGAVVVDMKHFTQFSMDDETYEAVIGPGTTLNDVDIELYNNGKRAMAHGVCPTIKTGGHFTIGGLGPTARQWGLALDHVEEVEVVLANSSIVRASNTQNQDVFFAVKGAAANFGIVTEFKVRTEPAPGLAVQYSYTFNLGSTAEKAQFVKDWQSFISAKNLTRQFYNNMVIFDGDIILEGLFFGSKEQYDALGLEDHFAPKNPGNILVLTDWLGMVGHALEDTILKLVGNTPTWFYAKSLGFRQDTLIPSAGIDEFFEYIANHTAGTPAWFVTLSLEGGAINDVAEDATAYAHRDVLFWVQLFMVNPAGPISDTTYEFTDGLYDVLARAVPESVGHAYLGCPDPRMEDAQQKYWRTNLPRLQELKEELDPKNTFHHPQGVMPA	5571.51	0.00	2154.32	higher	72.12	0.00	27.88	18021.77	4783.24	1188.04	75.11	19.94	4.95
t865732 (protein) MGNTTSIAGRDCLISALGGNSALAVFPNELLWTADVHEYNLNLPVTPAAITYPETAAQIAGVVKCASDYDYKVQARSGGHSFGNYGLGGADGAVVVDMKHFTQFSMDDETYEAVIGPGTTLNDVDIELYNNGKRAMAHGVCPTIKTGGHFTIGGLGPTARQWGLALDHVEEVEVVLANSSIVRASNTQNQDVFFAVKGAAANFGIVTEFKVRTEPAPGLAVQYSYTFNLGSTAEKAQFVKDWQSFISAKNLTRQFYNNMVIFDGDIILEGLFFGSKEQYDALGLEDHFAPKNPGNILVLTDWLGMVGHALEDTILKLVGNTPTWFYAKSLGFRQDTLIPSAGIDEFFEYIANHTAGTPAWFVTLSLEGGAINDVAEDATAYAHRDVLFWVQLFMVNPVGPISDTTYEFTDGLYDVLARAVPESVGYAYLGCPDPRMEDAQQKYWRTNLPRLQELKEELDPKNTFHHPQGVMPA	4734.85	0.00	2408.74	higher	66.28	0.00	33.72	22672.81	6720.79	1523.15	73.34	21.74	4.93
t865742 (protein) MGNTTSIAGRDCLISALGGNSALAVFPNELLWTADVHEYNLNLPVTPAAITYPETAAQIAGVVKCASDYDYKVQARSGGHSFGNYGLGGADGAVVVDMKHFTQFSMDDETYTAVIGPGTTLNDVDIELYNNGKRAMAHGVCPTIKTGGHFTIGGLGPTARQWGLALDHVEEVEVVLANSSIVRASNTQNQDVFFAVKGAAANFGIVTEFKVRTEPAPGLAVQYSYTFNLGSTAEKAQFVKDWQSFISAKNLTRQFYNNMVIFDGDIILEGLFFGSKEQYDALGLEDHFAPKNPGNILVLTDWLGMVGHALEDTILKLVGNTPTWFYAKSLGFRQDTLIPSAGIDEFFEYIANHTAGTPAWFVTLSLEGGAINDVAEDATAYAHRDVLFWVQLFMVNPVGPISDTTYEFTDGLYDVLARAVPESVGHAYLGCPDPRMEDAQQKYWRTNLPRLQELKEELDPKNTFHHPQGVMPA	2864.87	0.00	1514.38		65.42	0.00	34.58	31427.04	9022.22	2036.13	73.97	21.24	4.79
